From paper PMC9287425, “Hepatic non-parenchymal S100A9-TLR4-mTORC1 axis normalizes diabetic ketogenesis” (Nature Communications, 2022)
One block for each binder: values may come before it.

Tests used:
[1] = target: the molecule itself; experiment: SEC; analytical gel filtration, Superose 6 Increase 3.2/300 column
[2] = target: T1, recombinant human S100A9 (human), P06702; experiment: SEC-MALS; 30 µL of protein at 5 mg/mL on a Superose 6 Increase 10/300 GL column; light scattering and refractive index detectors; conditions: remark: other sources report otherwise
T1 chain: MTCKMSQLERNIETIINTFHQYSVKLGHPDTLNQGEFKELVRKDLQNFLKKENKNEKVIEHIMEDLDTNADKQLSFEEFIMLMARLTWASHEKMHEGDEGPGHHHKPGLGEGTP

B1: recombinant murine S100A9 (natural protein, UniProt P31725 1-113, looked up)
chain: MANKAPSQMERSITTIIDTFHQYSRKEGHPDTLSKKEFRQMVEAQLATFMKKEKRNEALINDIMEDLDTNQDNQLSFEECMMLMAKLIFACHEKLHENNPRGHGHSHGKGCGK
notes: cDNA encoding the protein cloned into a pET29+ vector; The homodimeric status is said of r-hS100A9; also called r-mS100A9; not shown: His10, N-terminal, cleaved; MBP, N-terminal, cleaved
binding result [1]: binds

stoichiometry N [2]: 2
B2: recombinant human S100A9, P06702 1-114 (natural protein)
chain: T1 chain
